We go through three molecules from patent US20210070876A1 (LES LABORATOIRES SERVIER, published 2021).

The target in test [1] is T1, human CD73 ECD fused C-terminally to human IgG1 Fc (human, UniProt P21589 27-549, limits assumed).
T1 construct: Expressed in ExpiCHO; also called Hs CD73 ECD; Fc-tagged antigen
T1 sequence: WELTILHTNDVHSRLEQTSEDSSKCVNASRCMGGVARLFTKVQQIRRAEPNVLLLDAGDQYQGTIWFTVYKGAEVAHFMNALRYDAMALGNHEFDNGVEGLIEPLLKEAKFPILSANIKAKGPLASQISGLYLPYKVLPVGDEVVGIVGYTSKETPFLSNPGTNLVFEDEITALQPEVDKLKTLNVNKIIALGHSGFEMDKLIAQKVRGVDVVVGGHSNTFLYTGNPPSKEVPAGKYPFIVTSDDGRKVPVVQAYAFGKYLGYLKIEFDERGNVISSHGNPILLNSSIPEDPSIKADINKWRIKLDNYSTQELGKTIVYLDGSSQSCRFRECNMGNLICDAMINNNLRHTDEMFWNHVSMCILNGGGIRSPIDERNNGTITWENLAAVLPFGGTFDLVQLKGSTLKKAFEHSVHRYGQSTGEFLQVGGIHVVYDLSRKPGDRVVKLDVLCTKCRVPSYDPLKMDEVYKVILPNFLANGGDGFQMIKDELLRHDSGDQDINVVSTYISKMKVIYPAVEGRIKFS
Description: SPR, Fc-tagged CD73 ECD captured, Fab injected. The method, then:
(§1) Kinetic binding analysis of anti-CD73 mAbs and Fab fragments was performed by Surface Plasmon Resonance (SPR), using a Continuous Flow Microspotter (CFM, Wasatch Microfluidics, Salt Lake City, US) combined with an IBIS MX96 SPR instrument (IBIS Technologies, The Netherlands). CD73 cDNAs coding for the extracellular domains of human and cynomolgus CD73 were synthesized and each cloned into a vector containing a CMV promoter and either a C-terminal 6× histidine sequence (SEQ ID NO: 45) for His-tagged CD73 ECD, or a human IgG1 Fc sequence (AA P101-K330), resulting in fusion of IgG1 Fc C-terminally to the cloned CD73 ECD. The His-tagged and Fc-fusion constructs were transiently expressed using an ExpiCHO™ expression system and purified either by standard Ni-NTA chromatography or standard MabSelect™ SuRe™ procedures, respectively. Anti-CD73 Fab fragments were generated by digesting full-length IgG1 antibodies with GingisKHAN enzyme, using a kit provided by Genovis (Sweden). Affinities of Fab fragments were measured by capturing Fc-tagged antigens on a G-a-hu-IgG Fc SensEye® for 15 minutes using the CFM. After spotting, the SensEye® was positioned in the IBIS MX96 biosensor and immobilized antigens were fixed by SensEye FixIt kit. Kinetic analysis was performed by injecting monomeric Fab fragments at increasing concentrations from 0.8 nM to 300 nM. After each cycle of Fab fragment injection, the surface was regenerated by 10 mM glycine pH 3, 10% glycerol. Fab association was performed for 15 minutes and antigen dissociation was performed for 15 minutes. Affinities of full-length monoclonal antibodies (mAbs) were measured by capturing mAbs on a G-a-hu-IgG Fc SensEye® (Ssens BV, The Netherlands) for 15 minutes using a Continuous Flow Microspotter (CFM, Wasatch Microfluidics, Salt Lake City, US). After spotting, the SensEye was docked in the IBIS MX96 and spotted mAbs were fixed by SensEye FixIt kit (Ssens BV, The Netherlands). Kinetic analysis was performed by applying a kinetic titration series injecting increasing concentrations of His-tagged antigens from 0.16 nM to 10 nM as 2-fold dilutions. The surface was regenerated before the next cycle of cynomolgus antigen injections by 100 mM H₃PO₄, pH 3. MAb association was performed for 15 minutes and antigen dissociation was performed for 45 minutes.
In general terms: Surface plasmon resonance follows binding to a sensor surface in real time, without labels.

Test [2] deals with T2, cynomolgus CD73 ECD fused C-terminally to human IgG1 Fc (cynomolgus monkey (Macaca …, UniProt A0A2K5V5U7 27-549)).
T2 construct: also called Cy CD73 ECD; Fc-tagged antigen; not shown: Human IgG1 Fc (printed as AA P101-K330) fused to the C-terminus of the ECD, and any linker
T2 sequence: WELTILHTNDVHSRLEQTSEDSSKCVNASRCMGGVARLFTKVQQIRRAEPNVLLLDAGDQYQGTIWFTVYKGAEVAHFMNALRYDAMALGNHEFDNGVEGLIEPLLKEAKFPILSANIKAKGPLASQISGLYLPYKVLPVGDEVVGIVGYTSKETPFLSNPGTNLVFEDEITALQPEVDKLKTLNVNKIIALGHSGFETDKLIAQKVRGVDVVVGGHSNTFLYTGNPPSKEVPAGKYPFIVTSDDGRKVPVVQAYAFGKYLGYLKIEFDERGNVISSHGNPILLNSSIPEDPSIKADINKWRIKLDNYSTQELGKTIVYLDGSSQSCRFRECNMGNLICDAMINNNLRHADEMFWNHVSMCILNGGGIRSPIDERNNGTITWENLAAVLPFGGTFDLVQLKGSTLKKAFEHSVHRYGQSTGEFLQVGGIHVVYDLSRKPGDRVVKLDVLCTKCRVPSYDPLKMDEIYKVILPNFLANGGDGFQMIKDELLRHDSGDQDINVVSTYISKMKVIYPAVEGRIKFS
The experiment in a line: SPR, Fc-tagged CD73 ECD captured, Fab injected. As for the experimental part: as §1

Test [3] concerns the target T3, His-tagged human CD73 ECD (human, UniProt P21589 27-549).
T3 construct: runs as a homodimer of about 124-125 kDa in SEC-MALS; also called CD73-His; CD73-His ECD antigen
T3 sequence: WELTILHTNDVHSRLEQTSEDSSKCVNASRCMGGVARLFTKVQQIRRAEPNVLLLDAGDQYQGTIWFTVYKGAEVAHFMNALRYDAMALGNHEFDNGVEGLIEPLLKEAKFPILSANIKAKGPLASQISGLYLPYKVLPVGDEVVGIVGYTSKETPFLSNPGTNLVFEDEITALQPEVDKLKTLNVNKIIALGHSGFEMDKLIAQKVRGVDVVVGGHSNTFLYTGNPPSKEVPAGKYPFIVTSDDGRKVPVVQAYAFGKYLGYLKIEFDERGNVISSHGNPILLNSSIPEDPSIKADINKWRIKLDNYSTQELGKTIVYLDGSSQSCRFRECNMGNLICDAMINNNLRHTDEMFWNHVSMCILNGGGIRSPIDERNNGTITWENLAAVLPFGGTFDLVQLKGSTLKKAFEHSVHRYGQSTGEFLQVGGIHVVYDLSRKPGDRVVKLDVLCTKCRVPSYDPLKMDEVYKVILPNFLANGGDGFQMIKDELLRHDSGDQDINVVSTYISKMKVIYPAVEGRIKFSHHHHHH
Description: SEC-MALS, mAb:CD73 1:1. As for the experimental part:
(§2) Anti-CD73 antibodies and His-tagged CD73 were analyzed in different ratios as well as individually to analyze the size of complexes formed between CD73 homodimer and anti-CD73 antibodies. Samples were prepared by mixing […] of CD73-His with 900, 450, 90 or 0 μmol of antibody diluted into PBS, pH 7.4. Samples were incubated for 30 min at room temperature followed by separation using a UHPLC UltiMate 3000 (Thermo Scientific) and SEC X-Bridge column (Waters) at a flow rate of 1.2 mL/min. Sample running buffer was 0.01 M Citrate, 250 mM L-Arginine.HCl, pH 6.0. Following HPLC separation, all samples were analyzed using a MiniDAWN TREOS MALS detector (Wyatt) and Optilab T-rEX refractive index detector (Wyatt). Data plots were generated using Graph Pad Prism.
For orientation: In gel filtration, larger molecules generally elute earlier.

In test [4] the target is T3, His-tagged human CD73 ECD. The experiment in a line: SEC-MALS, mAb:CD73 0.1:1. As for the experimental part:
as §2

Test [5] has as its target T3, His-tagged human CD73 ECD. The experiment in a line: SEC-MALS, mAb:CD73 0.5:1. As for the experimental part:
as §2

The target of test [6] is T4, His-tagged cynomolgus CD73 ECD (cynomolgus monkey (Macaca fascicularis)).
T4 chain: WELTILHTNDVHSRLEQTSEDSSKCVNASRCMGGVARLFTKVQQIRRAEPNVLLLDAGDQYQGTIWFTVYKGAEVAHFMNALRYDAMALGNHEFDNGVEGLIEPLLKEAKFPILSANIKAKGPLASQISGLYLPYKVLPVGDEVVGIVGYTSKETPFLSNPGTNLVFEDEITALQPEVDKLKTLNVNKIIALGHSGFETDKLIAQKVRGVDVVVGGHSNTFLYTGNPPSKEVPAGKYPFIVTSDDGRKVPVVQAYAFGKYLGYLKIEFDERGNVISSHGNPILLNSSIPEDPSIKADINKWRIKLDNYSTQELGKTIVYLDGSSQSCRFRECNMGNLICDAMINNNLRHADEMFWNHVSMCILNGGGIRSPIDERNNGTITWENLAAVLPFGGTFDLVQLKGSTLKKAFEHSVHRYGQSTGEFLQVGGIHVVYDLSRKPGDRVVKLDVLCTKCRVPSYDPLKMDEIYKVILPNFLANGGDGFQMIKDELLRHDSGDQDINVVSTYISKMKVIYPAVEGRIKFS
Description: SPR, mAb captured, His-tagged CD73 ECD injected. The method, then: as §1

Test [7] addresses T3, His-tagged human CD73 ECD. The experiment in a line: SPR, mAb captured, His-tagged CD73 ECD injected. The method, then:
as §1

B1: 21163 Fab fragment (Fab, V domains shown, not shown: small tags and cut ends)
VH: EVQLVESGGGLVQPGGSLRLSCAASGFSFSTYWMNWVRQAPGKGLEWVANIKQDGSEKYYVDSVKGRFTISRDNAKNSLYLQMNSLRAEDTAVYYCARDISSSWFYYYGMDVWGQGTTVTVSS
VL: DIQLTQSPSFLSASVGDRVTITCRASQGISSYLAWYQQKPGKAPKLLIYAASTLQSGVPSRFSGSGSGTEFTLTISSLQPEDFATYYCQQLNSYPPTFGGGTKVEIKR
notes: Made by digesting the full-length IgG1 with GingisKHAN enzyme (Genovis)
Usually Kd stands for the free concentration of one partner at which half of the binding sites on the other are occupied at equilibrium, for simple one-to-one binding. What is called koff is the first-order rate constant of dissociation. A word on the kon: it is the second-order rate constant of association. In test [1], B1 displayed a Kd of 78300 pM, an off-rate constant (koff) of 0.015 s⁻¹ and an on-rate constant (kon) of 200000 M⁻¹ s⁻¹. In test [2], this molecule showed a Kd of 77600 pM, a koff of 0.016 s⁻¹ and a kon of 200000 M⁻¹ s⁻¹.

B2: antibody 21046 (antibody, human IgG1, kappa, L234A L235A, V domains shown)
VH: EVQLVESGGGLVQPGRSLRLSCVASGFTFDDYAMHWVRQAPGKGLEWVSGISWNSGSIGYADSVKGRFTISRDNAKNSLYLQMNSLRAEDTAFYYCAQGGYAILTALEYWGQGTLVTVSS
VL: DIQMTQSPSSLSASVGDRVTITCRASQGISNYLAWFQQKPGKAPKSLIYAASSLQSGVPSKFSGSGSGTDFTLTISSLQPEDFATYYCQQYNSYPLTFGGGTKVEIKR
notes: Fully human IgG1-LALA (L234A/L235A), kappa
As for B2, the “molecular mass of complex, Peak 2 (MW, kDa)” value is 382 kDa in test [3], 969 kDa in test [4] and 199 kDa in test [5]. Further, the results for the dissociation constant Kd in test [6] and in test [7] were 50 pM and 40 pM, respectively. For the same molecule, the koff came out at 1.1e-05 s⁻¹ in test [6] and 8.3e-06 s⁻¹ in test [7]. For the same molecule, the figures for the kon in test [6] and in test [7] were 210000 M⁻¹ s⁻¹ and 190000 M⁻¹ s⁻¹, respectively.

B3: 21046 Fab fragment (Fab, V domains shown, not shown: small tags and cut ends)
VH: EVQLVESGGGLVQPGRSLRLSCVASGFTFDDYAMHWVRQAPGKGLEWVSGISWNSGSIGYADSVKGRFTISRDNAKNSLYLQMNSLRAEDTAFYYCAQGGYAILTALEYWGQGTLVTVSS
VL: DIQMTQSPSSLSASVGDRVTITCRASQGISNYLAWFQQKPGKAPKSLIYAASSLQSGVPSKFSGSGSGTDFTLTISSLQPEDFATYYCQQYNSYPLTFGGGTKVEIKR
notes: as for B1
In test [1], B3 came in with a Kd of 800 pM, a koff of 0.0005 s⁻¹ and a kon of 610000 M⁻¹ s⁻¹. In test [2], the affinity, expressed as Kd, was 800 pM; the off-rate (koff) amounted to 0.00052 s⁻¹; the on-rate constant (kon) amounted to 620000 M⁻¹ s⁻¹.
